Target: T1, HLA-A*02:01 (human)
T1 construct: MHC monomers first loaded with a UV-sensitive peptide (not identified) that is cleaved and exchanged for the test peptide; captured on streptavidin-coated plates and detected with anti-β2m; also called peptide-receptive MHC molecules; MHC class I
Test: UV-ligand exchange, anti-b2m ELISA; peptide exchange yield grade
Source text: Candidate peptides for T cell based therapies according to the present invention were further tested for their MHC binding capacity (affinity). The individual peptide-MHC complexes were produced by UV-ligand exchange, where a UV-sensitive peptide is cleaved upon UV-irradiation and exchanged with the peptide of interest as analyzed. Only peptide candidates that can effectively bind and stabilize the peptide-receptive MHC molecules prevent dissociation of the MHC complexes. To determine the yield of the exchange reaction, an ELISA was performed based on the detection of the light chain (β2m) of stabilized MHC complexes. The assay was performed as generally described in Rodenko et al. (Rodenko et al., 2006).
96 well MAXISorp plates (NUNC) were coated over night with 2 μg/ml streptavidin in PBS at room temperature, washed 4× and blocked for 1 h at 37° C. in 2% BSA containing blocking buffer. Refolded HLA-A*02:01/MLA-001 monomers served as standards, covering the range of 15-500 ng/ml. Peptide-MHC monomers of the UV-exchange reaction were diluted 100-fold in blocking buffer. Samples were incubated for 1 h at 37° C., washed four times, incubated with 2 μg/ml HRP conjugated anti-β2m for 1h at 37° C., washed again and detected with TMB solution that is stopped with […]. Absorption was measured at 450 nm. Candidate peptides that show a high exchange yield (preferably higher than 50%, most preferred higher than 75%) are generally preferred for a generation and production of antibodies or fragments thereof, and/or T cell receptors or fragments thereof, as they show sufficient avidity to the MHC molecules and prevent dissociation of the MHC complexes.

peptide exchange yield [%]	Binder
≥ 75	FISDFTMTI
≥ 75	ILFDLTHRV
50 to 75	QLMEKVQDV
≥ 75	FLNLFDHTL
50 to 75	AIYHDITGISV
≥ 75	TLDITIVNL
≥ 75	ILFDPDNSSAL
50 to 75	YMDGTMSQV
50 to 75	FVDEHTIDI
≥ 75	KLLNDLTSI
≥ 75	SLLFQDITL
≥ 75	TLDATVVEL
≥ 75	ALYDSTRELL
≥ 75	TLIDATWLV
50 to 75	SLSDVSQAV
50 to 75	SQDASLLKV
≥ 75	GLDRTQLVNV
≥ 75	NVDSTILNL
≥ 75	ILDSTTIEI
≥ 75	ALADLTGTVVNL
≥ 75	VLMDGTLKQV
≥ 75	YVWDRTELL

peptide exchange yield [%]	Binder
50 to 75	HMIDLTIHL
≥ 75	KLEERVYDV
≥ 75	ALPQFFNDV
≥ 75	RLLEGDFSL
≥ 75	QLLGRDISL
50 to 75	NLYNDLTNV
50 to 75	IQDTSHLAV
≥ 75	YLFEDISQL
≥ 75	HLCNHDVSL
50 to 75	SLYDFTGEQMAA
50 to 75	FLDQTDETL
50 to 75	VIDSTLVKV
50 to 75	SLRDGTEVV
≥ 75	SQTDLSPAL
≥ 75	SLFAYPLPDV
50 to 75	AIDDTAARL
50 to 75	YIYDGKDMSSL
≥ 75	FLGEDISNFL
≥ 75	FLKDVTAQI
≥ 75	LLDSTAHLL
≥ 75	RLLDTTDVYLL
50 to 75	ILTDITGHDV

peptide exchange yield [%]	Binder
50 to 75	AVDGTDARL
≥ 75	WLIDKSMEL
50 to 75	FLLDGTDMFHM
≥ 75	ILYDGSNIQL
≥ 75	FLDTSTADV
50 to 75	LLDDQTVTF
≥ 75	KTWDQSIAL
≥ 75	GLVDGSSVTV
≥ 75	FMNDRSFIL
≥ 75	SLDISLPNL
50 to 75	VLDDTLVIF
50 to 75	ILDEAKDISF
≥ 75	ILFDDSVFTL
≥ 75	ILLDKSTVL
≥ 75	KLLDLTVRI
≥ 75	LLDATHQI
50 to 75	KLISDMGKDVSA
≥ 75	FLGPIVDL
50 to 75	AVFDQTVTVI
≥ 75	ALDDYTITF
≥ 75	SLFDDSFSL
≥ 75	SLLDGSESAKL

Reference: patent US20220111022A1 (IMMATICS BIOTECHNOLOGIES, published 2022)
